No end group written: not given here. *: point of attachment. Biotin = O=C1N[C@H]2[C@H](CS[C@H]2CCCCC(=O)*)N1

Sequences and labels used below:
T1: ET140-p38 (human)
T1 construct: also called peptide 38
T1 peptide: Biotin-SGSGRYCNASVTNSVKGTN

T2: ET140-p2 (human)
T2 construct: also called peptide 2
T2 peptide: Biotin-SGSGQMAGQCSQNEYFDSL

T3: ET140-p11 (human, cysteine pairing not given here)
T3 construct: also called peptide 11; ET140-pll
T3 peptide: Biotin-SGSGEYFDSLLHACIPCQL

T4: ET140-p23 (human, cysteine pairing not given here)
T4 construct: also called peptide 23
T4 peptide: Biotin-SGSGCQLRCSSNTPPLTCQ

T5: ET140-p13 (human, cysteine pairing not given here)
T5 construct: also called peptide 13
T5 peptide: Biotin-SGSGFDSLLHACIPCQLRC

T6: ET140-p31 (human, cysteine pairing not given here)
T6 construct: also called peptide 31
T6 peptide: Biotin-SGSGTPPLTCQRYCNASVT

T7: ET140-p12 (human, cysteine pairing not given here)
T7 construct: also called peptide 12
T7 peptide: Biotin-SGSGYFDSLLHACIPCQLR

T8: ET140-p1 (human)
T8 construct: also called peptide 1; ET140-pl
T8 peptide: Biotin-SGSGLQMAGQCSQNEYFDS

T9: ET140-p37 (human)
T9 construct: also called peptide 37
T9 peptide: Biotin-SGSGQRYCNASVTNSVKGT

T10: ET140-p32 (human, cysteine pairing not given here)
T10 construct: also called peptide 32
T10 peptide: Biotin-SGSGPPLTCQRYCNASVTN

T11: ET140-p30 (human, cysteine pairing not given here)
T11 construct: also called peptide 30
T11 peptide: Biotin-SGSGNTPPLTCQRYCNASV

T12: ET140-p24 (human, cysteine pairing not given here)
T12 construct: also called peptide 24
T12 peptide: Biotin-SGSGQLRCSSNTPPLTCQR

T13: ET140-p9 (human, cysteine pairing not given here)
T13 construct: also called peptide 9
T13 peptide: Biotin-SGSGQNEYFDSLLHACIPC

T14: ET140-p17 (human, cysteine pairing not given here)
T14 construct: also called peptide 17
T14 peptide: Biotin-SGSGLHACIPCQLRCSSNT

T15: ET140-p34 (human, cysteine pairing not given here)
T15 construct: also called peptide 34
T15 peptide: Biotin-SGSGLTCQRYCNASVTNSV

T16: ET140-p36 (human, cysteine pairing not given here)
T16 construct: also called peptide 36
T16 peptide: Biotin-SGSGCQRYCNASVTNSVKG

T17: ET140-p10 (human, cysteine pairing not given here)
T17 construct: also called peptide 10
T17 peptide: Biotin-SGSGNEYFDSLLHACIPCQ

T18: ET140-p6 (human, cysteine pairing not given here)
T18 construct: also called peptide 6
T18 peptide: Biotin-SGSGQCSQNEYFDSLLHAC

T19: ET140-p27 (human, cysteine pairing not given here)
T19 construct: also called peptide 27
T19 peptide: Biotin-SGSGCSSNTPPLTCQRYCN

T20: ET140-p35 (human, cysteine pairing not given here)
T20 construct: also called peptide 35
T20 peptide: Biotin-SGSGTCQRYCNASVTNSVK

T21: ET140-p19 (human, cysteine pairing not given here)
T21 construct: also called peptide 19
T21 peptide: Biotin-SGSGACIPCQLRCSSNTPP

T22: ET140-p14 (human, cysteine pairing not given here)
T22 construct: also called peptide 14
T22 peptide: Biotin-SGSGDSLLHACIPCQLRCS

T23: biotinylated BCMA-Fc protein (human, UniProt Q02223 1-54, biotinylated (site not stated))
T23 construct: also called BCMA recombinant antigen; not shown: Fc part
T23 sequence: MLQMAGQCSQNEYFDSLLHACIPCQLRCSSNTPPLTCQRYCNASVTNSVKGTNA

B1: ET140-174 mIgG1 (antibody, V domains shown)
VH: EVQLVQSGAEVKKPGESLKISCKGSGYSFTSYWIGWVRQMPGKGLEWMGIIYPGDSDTRYSPSFQGHVTISADKSISTAYLQWSSLKASDTAMYYCARYSGSFDNWGQGTLVTVSS
VL: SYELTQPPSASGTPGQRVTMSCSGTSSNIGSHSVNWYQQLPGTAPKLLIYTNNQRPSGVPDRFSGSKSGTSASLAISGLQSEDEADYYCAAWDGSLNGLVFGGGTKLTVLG
notes: also called ET140-24 mIgG1; ET140-24
B2: ET140-153 mIgG1 (antibody, V domains shown)
VH: QVQLVQSGAEVKKPGSSVKVSCKASGGTFSSYAISWVRQAPGQGLEWMGRIIPILGIANYAQKFQGRVTITADKSTSTAYMELSSLRSEDTAVYYCARGGYYSHDMWSEDWGQGTLVTVSS
VL: LPVLTQPPSASGTPGQRVTISCSGRSSNIGSNSVNWYRQLPGAAPKLLIYSNNQRPPGVPVRFSGSKSGTSASLAISGLQSEDEATYYCATWDDNLNVHYVFGTGTKVTVLG
notes: also called ET140-3 mIgG1; ET140-3
B3: ET140-204 mIgG1 (antibody, V domains shown)
VH: EVQLVQSGAEMKKPGASLKLSCKASGYTFIDYYVYWMRQAPGQGLESMGWINPNSGGTNYAQKFQGRVTMTRDTSISTAYMELSRLRSDDTAMYYCARSQRDGYMDYWGQGTLVTVSS
VL: QSALTQPASVSASPGQSIAISCTGTSSDVGWYQQHPGKAPKLMIYEDSKRPSGVSNRFSGSKSGNTASLTISGLQAEDEADYYCSSNTRSSTLVFGGGTKLTVLG
notes: also called ET140-54 mIgG1; ET140-54

For one assay, the target named is T1, ET140-p38. Briefly: peptide ELISA on streptavidin plate, antibody 1 ug/mL. As for the experimental part:
(§1) The peptides were coated onto Streptavidin plates at 2 ug/mL in PBST (PBS+0.05% Tween-20). After washing and blocking with 3% BSA. […] “mIgG1” used in all Examples represents that the variable region is fully human and the Fc part is mouse IgG1. Then HRP anti-mouse IgG detection antibody was added to each well. Finally, the color was developed using TMB substrate. A450 was recorded for data analysis.
B1 came in with an A450 of 0.071.

In turn, B2 came in with an A450 of 0.08.

B3 displayed an A450 of 0.069.

The next assay deals with T2, ET140-p2. The description is as above. As for the experimental part: as §1
Take B1: the A450 came to 0.079.

On to B2, for which the A450 was 0.076.

With B3, the A450 stood at 0.076.

Another assay concerns the target T3, ET140-p11. Described as above. The procedure:
as §1
B1 came in with an A450 of 0.094.

Take B2: the A450 worked out at 1.07.

For the molecule B3, the A450 is 0.085.

The target in a further assay is T4, ET140-p23. The description is as above. As for the experimental part: as §1
The molecule B1 had an A450 of 0.109.

As to B2, the A450 is 0.113.

B3 showed an A450 of 0.101.

Another assay addresses T5, ET140-p13. The assay is described as above. The procedure: as §1
B1 displayed an A450 of 0.143.

B2 registered an A450 of 1.03.

Take B3: the A450 was found to be 0.138.

In a further assay the target is T6, ET140-p31. The description is as above. As for the experimental part: as §1
Consider B1, for which the A450 amounted to 0.085.

Take B2: the A450 stood at 0.107.

For the molecule B3, the A450 was 0.08.

A further assay has as its target T7, ET140-p12. Described as above. As for the experimental part:
as §1
B1 came in with an A450 of 0.137.

The molecule B2 gave an A450 of 2.08.

B3 yielded an A450 of 0.139.

The target of a further assay is T8, ET140-p1. The assay is described as above. As for the experimental part:
as §1
B1 yielded an A450 of 0.084.

B2 showed an A450 of 0.084.

Molecule B3 showed an A450 of 0.069.

A further assay addresses T9, ET140-p37. Described as above. As for the experimental part: as §1
In turn, B1 had an A450 of 0.086.

Molecule B2 gave an A450 of 0.085.

For the molecule B3, the A450 was 0.083.

In the next assay the target is T10, ET140-p32. The description is as above. The procedure: as §1
B1 had an A450 of 0.092.

Molecule B2 came in with an A450 of 0.099.

B3 came in with an A450 of 0.092.

A further assay has as its target T11, ET140-p30. The description is as above. The procedure:
as §1
The molecule B1 came in with an A450 of 0.083.

In the case of B2, the A450 turned out to be 0.111.

The molecule B3 yielded an A450 of 0.08.

A further assay deals with T12, ET140-p24. Described as above. As for the experimental part:
as §1
B1 had an A450 of 0.357.

B2 returned an A450 of 0.382.

The molecule B3 yielded an A450 of 0.325.

The next assay concerns the target T13, ET140-p9. The description is as above. As for the experimental part: as §1
In turn, B1 had an A450 of 0.104.

Consider B2, for which the A450 was determined as 2.25.

B3 had an A450 of 0.087.

In another assay the target is T14, ET140-p17. The description is as above. The procedure: as §1
For the molecule B1, the A450 stood at 0.15.

B2 had an A450 of 0.155.

As for B3, the A450 was 0.146.

For another assay, the target named is T15, ET140-p34. Described as above. The procedure:
as §1
The molecule B1 gave an A450 of 0.069.

For the molecule B2, the A450 turned out to be 0.099.

B3: the A450 is 0.07.

A further assay addresses T16, ET140-p36. The assay is described as above. As for the experimental part: as §1
B1 had an A450 of 0.084.

In turn, B2 displayed an A450 of 0.089.

In turn, B3 had an A450 of 0.085.

Another assay has as its target T17, ET140-p10. Described as above. As for the experimental part:
as §1
As to B1, the A450 was 0.115.

For the molecule B2, the A450 worked out at 0.758.

The molecule B3 displayed an A450 of 0.087.

The target of a further assay is T18, ET140-p6. The assay is described as above. The procedure:
as §1
For the molecule B1, the A450 came out at 0.105.

With B2, the A450 is 0.127.

B3 returned an A450 of 0.095.

The next assay concerns the target T19, ET140-p27. The assay is described as above. As for the experimental part: as §1
B1 came in with an A450 of 0.1.

B2 returned an A450 of 0.12.

Regarding B3, the A450 was 0.103.

Another assay has as its target T20, ET140-p35. The assay is described as above. As for the experimental part:
as §1
B1: the A450 was 0.076.

The molecule B2 registered an A450 of 0.072.

Turning to B3, the A450 came out at 0.071.

Another assay addresses T21, ET140-p19. The assay is described as above. As for the experimental part: as §1
For B1, the A450 is 0.104.

For B2, the A450 amounted to 0.098.

B3 registered an A450 of 0.099.

The next assay deals with T22, ET140-p14. Described as above. As for the experimental part:
as §1
B1: the A450 was determined as 0.105.

B2 gave an A450 of 0.124.

With B3, the A450 came out at 0.104.

The next assay concerns the target T23, biotinylated BCMA-Fc protein. The experiment in a line: SPR (BIAcore X100), biotinylated BCMA-Fc captured on Sensor Chip CAP, antibody injected, 1:1 Langmuir fit. As for the experimental part: In brief, 50 μg/mL of modified streptavidin was immobilized onto a Sensor Chip CAP by flowing the Biotin CAPture Reagent through the flow cells at 2 μL/min for 5 minutes. 10 ug/mL biotinylated BCMA-Fc protein was loaded onto the flow cell at a rate of 30 μL/min for 3 minutes. Following the standard protocol for kinetics, a series of injection of ESK1 was performed between 0.6 and 15 μg/mL, each step consisting of a 3 minute injection at 30 μL/min and 3 minute disassociation. […] Kinetic constants were derived by the global fitting (1:1 Langmuir binding model) using BIAcore ×100 Evaluation Software (Version 2.0.1).
The molecule B1 showed a Kd of 4.8 nM. In other words, the single-digit nanomolar range.

Regarding B2, binding was put at a Kd of 1.2 nM.

B3 had a Kd of 8.1 nM.

(Values after patent US20210346432A1 (Memorial Sloan Kettering, published 2021).)
